First the molecules themselves.
B1: Antibody 2 scFv (scFv, V domains shown)
VH: QVQLVQSGAEVKKPGATVKLSCKVYGYIFTDYNIYWVRQAPGKGLEWMGLIDPDNGETFYAEKFQGRATMTADTSSDRAYMELTSLTFEDTATYYCATVSLRSAKGGYDYWGRGTLVTVSS
VL: QSVLTQPPSVSGAPGQRVTISCTGSSSNIGAGYDVHWYQQLPGTAPKLLIYDNFNRPSGVPDRFSGSKSGTSASLAIIGLQTEDEADYYCQSYDSSLSGSLFGTGTKLTVL
notes: Purified scFv, non-germlined; not shown: scFv linker and any tags; the libraries are only cited to Vaughan et al. 1996
B2: Antibody 7 scFv (scFv, V domains shown)
VH: QVQLVQSGAEVKKPGATVKLSCKVYGYIFTDYNIYWVRQAPGKGLEWMGLIDPDNGETFYAEKFQGRATMTADTSSDRAYMELTSLTFEDTATYYCATVTLKSAKGGYDYWGRGTLVTVSS
VL: QSVLTQPPSVSGAPGQRVTISCTGSSSNIGAGYDVHWYQQLPGTAPKLLIYDNFNRPSGVPDRFSGSKSGTSASLAIIGLQTEDEADYYCQSYDSDRRNSPFGTGTKLTVL
notes: Purified scFv, non-germlined
B3: Antibody 3 scFv (scFv, V domains shown)
VH: QVQLVQSGAEVKKPGATVKLSCKVYGYIFTDYNIYWVRQAPGKGLEWMGLIDPDNGETFYAEKFQGRATMTADTSSDRAYMELTSLTFEDTATYYCATVMGKWIKGGYDYWGRGTLVTVSS
VL: QSVLTQPPSVSGAPGQRVTISCTGSSSNIGAGYDVHWYQQLPGTAPKLLIYDNFNRPSGVPDRFSGSKSGTSASLAIIGLQTEDEADYYCQSYDSTFNHAPFGTGTKLTVL
notes: as for B1
B4: Antibody 22 scFv (scFv, V domains shown)
VH: QVQLVQSGAEVKKPGATVKLSCKVYGYIFTDYNIYWVRQAPGKGLEWMGLIDPDNGETFYAEKFQGRATMTADTSSDRAYMELTSLTFEDTATYYCATVTLKSAKGGYDYWGRGTLVTVSS
VL: QSVLTQPPSVSGAPGQRVTISCTGSSSNIGAGYDVHWYQQLPGTAPKLLIYDNFNRPSGVPDRFSGSKSGTSASLAIIGLQTEDEADYYCQSYDSSGGYAPFGTGTKLTVL
notes: Purified scFv, non-germlined
B5: Antibody 10 scFv (scFv, V domains shown)
VH: QVQLVQSGAEVKKPGATVKLSCKVYGYIFTDYNIYWVRQAPGKGLEWMGLIDPDNGETFYAEKFQGRATMTADTSSDRAYMELTSLTFEDTATYYCATVSLRAAKGGYDYWGRGTLVTVSS
VL: QSVLTQPPSVSGAPGQRVTISCTGSSSNIGAGYDVHWYQQLPGTAPKLLIYDNFNRPSGVPDRFSGSKSGTSASLAIIGLQTEDEADYYCQSYDSEQELAPFGTGTKLTVL
notes: Purified scFv, non-germlined
B6: Antibody 21 scFv (scFv, V domains shown)
VH: QVQLVQSGAEVKKPGATVKLSCKVYGYIFTDYNIYWVRQAPGKGLEWMGLIDPDNGETFYAEKFQGRATMTADTSSDRAYMELTSLTFEDTATYYCATVTLKSAKGGYDYWGRGTLVTVSS
VL: QSVLTQPPSVSGAPGQRVTISCTGSSSNIGAGYDVHWYQQLPGTAPKLLIYDNFNRPSGVPDRFSGSKSGTSASLAIIGLQTEDEADYYCQSYDSSSQLSPFGTGTKLTVL
notes: Purified scFv, non-germlined
B7: Antibody 25 scFv (scFv, V domains shown)
VH: QVQLVQSGAEVKKPGATVKLSCKVYGYIFTDYNIYWVRQAPGKGLEWMGLIDPDNGETFYAEKFQGRATMTADTSSDRAYMELTSLTFEDTATYYCATVTLKSAKGGYDYWGRGTLVTVSS
VL: QSVLTQPPSVSGAPGQRVTISCTGSSSNIGAGYDVHWYQQLPGTAPKLLIYDNFNRPSGVPDRFSGSKSGTSASLAIIGLQTEDEADYYCQSYDSNHKTSPFGTGTKLTVL
notes: Purified scFv, non-germlined
B8: Antibody 14 scFv (scFv, V domains shown)
VH: QVQLVQSGAEVKKPGATVKLSCKVYGYIFTDYNIYWVRQAPGKGLEWMGLIDPDNGETFYAEKFQGRATMTADTSSDRAYMELTSLTFEDTATYYCATVMGKWIKGGYDYWGRGTLVTVSS
VL: QSVLTQPPSVSGAPGQRVTISCTGSSSNIGAGYDVHWYQQLPGTAPKLLIYDNFNRPSGVPDRFSGSKSGTSASLAIIGLQTEDEADYYCQSYDSHHRHSPFGTGTKLTVL
notes: Purified scFv, non-germlined
B9: Antibody 18 scFv (scFv, V domains shown)
VH: QVQLVQSGAEVKKPGATVKLSCKVYGYIFTDYNIYWVRQAPGKGLEWMGLIDPDNGETFYAEKFQGRATMTADTSSDRAYMELTSLTFEDTATYYCATVLLRSAKGGYDYWGRGTLVTVSS
VL: QSVLTQPPSVSGAPGQRVTISCTGSSSNIGAGYDVHWYQQLPGTAPKLLIYDNFNRPSGVPDRFSGSKSGTSASLAIIGLQTEDEADYYCQSYDSHLQLSPFGTGTKLTVL
notes: Purified scFv, non-germlined
B10: Antibody 23 scFv (scFv, V domains shown)
VH: QVQLVQSGAEVKKPGATVKLSCKVYGYIFTDYNIYWVRQAPGKGLEWMGLIDPDNGETFYAEKFQGRATMTADTSSDRAYMELTSLTFEDTATYYCATVMGKWIKGGYDYWGRGTLVTVSS
VL: QSVLTQPPSVSGAPGQRVTISCTGSSSNIGAGYDVHWYQQLPGTAPKLLIYDNFNRPSGVPDRFSGSKSGTSASLAIIGLQTEDEADYYCQSYDSHHLYSSFGTGTKLTVL
notes: Purified scFv, non-germlined
B11: Antibody 24 scFv (scFv, V domains shown)
VH: QVQLVQSGAEVKKPGATVKLSCKVYGYIFTDYNIYWVRQAPGKGLEWMGLIDPDNGETFYAEKFQGRATMTADTSSDRAYMELTSLTFEDTATYYCATVTLKTAKGGYDYWGRGTLVTVSS
VL: QSVLTQPPSVSGAPGQRVTISCTGSSSNIGAGYDVHWYQQLPGTAPKLLIYDNFNRPSGVPDRFSGSKSGTSASLAIIGLQTEDEADYYCQSYDSRNGYGGFGTGTKLTVL
notes: Purified scFv, non-germlined
B12: Antibody 9 scFv (scFv, V domains shown)
VH: QVQLVQSGAEVKKPGATVKLSCKVYGYIFTDYNIYWVRQAPGKGLEWMGLIDPDNGETFYAEKFQGRATMTADTSSDRAYMELTSLTFEDTATYYCATVTLRSAKGGYDYWGRGTLVTVSS
VL: QSVLTQPPSVSGAPGQRVTISCTGSSSNIGAGYDVHWYQQLPGTAPKLLIYDNFNRPSGVPDRFSGSKSGTSASLAIIGLQTEDEADYYCQSYDSPSSTSPFGTGTKLTVL
notes: Purified scFv, non-germlined
B13: Antibody 26 scFv (scFv, V domains shown)
VH: QVQLVQSGAEVKKPGATVKLSCKVYGYIFTDYNIYWVRQAPGKGLEWMGLIDPDNGETFYAEKFQGRATMTADTSSDRAYMELTSLTFEDTATYYCATVSLKEAKGGYDYWGRGTLVTVSS
VL: QSVLTQPPSVSGAPGQRVTISCTGSSSNIGAGYDVHWYQQLPGTAPKLLIYDNFNRPSGVPDRFSGSKSGTSASLAIIGLQTEDEADYYCQSYDSASRHAPFGTGTKLTVL
notes: Purified scFv, non-germlined
B14: Antibody 15 scFv (scFv, V domains shown)
VH: QVQLVQSGAEVKKPGATVKLSCKVYGYIFTDYNIYWVRQAPGKGLEWMGLIDPDNGETFYAEKFQGRATMTADTSSDRAYMELTSLTFEDTATYYCATVTLKTAKGGYDYWGRGTLVTVSS
VL: QSVLTQPPSVSGAPGQRVTISCTGSSSNIGAGYDVHWYQQLPGTAPKLLIYDNFNRPSGVPDRFSGSKSGTSASLAIIGLQTEDEADYYCQSYDSHKGYGGFGTGTKLTVL
notes: Purified scFv, non-germlined
B15: Antibody 17 scFv (scFv, V domains shown)
VH: QVQLVQSGAEVKKPGATVKLSCKVYGYIFTDYNIYWVRQAPGKGLEWMGLIDPDNGETFYAEKFQGRATMTADTSSDRAYMELTSLTFEDTATYYCATVTLKSAKGGYDYWGRGTLVTVSS
VL: QSVLTQPPSVSGAPGQRVTISCTGSSSNIGAGYDVHWYQQLPGTAPKLLIYDNFNRPSGVPDRFSGSKSGTSASLAIIGLQTEDEADYYCQSYDSQSSTSPFGTGTKLTVL
notes: Purified scFv, non-germlined

These results are taken from US20090060919A1 (AstraZeneca / MedImmune, published 2009).

The target of this assay is T1, human IgEλ (U266 derived) (human, UniProt P01854-1 1-428).
T1 construct: Whole IgE purified from U266 cells (Ikeyama et al. 1986); labelled with europium cryptate or biotin in some assays; also called human IgE (U266-derived); human IgE lambda
T1 sequence (P01854 other isoform, or with tags, fused parts or gaps): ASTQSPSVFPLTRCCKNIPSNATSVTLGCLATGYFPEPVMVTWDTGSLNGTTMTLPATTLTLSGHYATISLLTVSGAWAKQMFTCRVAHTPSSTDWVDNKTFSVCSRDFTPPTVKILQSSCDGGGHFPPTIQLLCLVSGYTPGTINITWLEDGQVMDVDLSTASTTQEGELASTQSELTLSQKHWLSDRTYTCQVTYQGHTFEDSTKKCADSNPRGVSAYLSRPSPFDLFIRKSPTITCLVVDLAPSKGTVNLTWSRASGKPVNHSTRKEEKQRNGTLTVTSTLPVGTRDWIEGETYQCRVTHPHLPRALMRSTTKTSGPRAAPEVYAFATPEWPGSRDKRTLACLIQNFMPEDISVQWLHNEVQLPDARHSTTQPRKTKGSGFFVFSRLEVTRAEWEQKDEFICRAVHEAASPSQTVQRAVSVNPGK
Briefly: HTRF competition: scFv against Eu-cryptate human IgE binding to human FcεRI-Fc. Background: In TR-FRET formats the signal depends on donor and acceptor labels being close together.
In general, IC50 refers to the concentration at which inhibition is half-maximal. High values mean weaker potency in that assay, low ones greater potency in that assay. Regarding B1, the IC50 turned out to be 28 nM. In turn, B2 displayed an IC50 of 9 nM. To B3 belongs 5 nM; to B4, 6 nM. In the case of B5 it was 10 nM; in that of B6, 6 nM. For the molecule B7, the IC50 amounted to 8 nM. In the case of B8 it was 8 nM; in that of B9, 11 nM; in that of B10, 1 nM. In the case of B11 it was 9 nM; in that of B12, 9 nM. In the case of B13 it was 12 nM; in that of B14, 7 nM; in that of B15, 6 nM.
